Data reported in patent US10632208B2, “Peptide-mediated drug delivery across epithelial barrier” (Purdue Research Foundation, priority 2017, dated 2020).

Columns and labels:
[1] = test system: L. monocytogenes; test: Translocation of L. monocytogenes through polarized Caco-2 monolayers on Transwell filter-inserts; format: cell-based, Listeria monocytogenes; conditions: LAP 1 or 2 μg/mL, MOI 50
Procedure: Caco-2 cells were grown as monolayers on Transwell inserts with 3.0 μm pores (Corning-Costar) for up to 14-21 days. TEER was measured to monitor the monolayer integrity (Millicells Voltmeter, Millipore). A TEER value of at least 200 Ω/cm^2 (±10) was used as the basal value to monitor the monolayer integrity. Bacterial cells were washed three times in PBS and resuspended in DMEM-FBS (10%) at a MOI of ˜50 and were added to the apical side of the Transwell system, and after 2 h incubation period at 37° C. in 5% CO2, the liquid was collected from the basal well, and then translocated bacteria were enumerated by plating (Burkholder and Bhunia, 2010). For analysis of FD4 flux, non-metabolizable 4 kDa FITC-labeled dextran (FD4; 5 mg/ml, Sigma-Aldrich) was added with bacteria (MOI, ˜50) resuspended in DMEM-FBS (10%) and added to the apical side. After 2 h incubation at 37° C. in 5% CO2, the liquid was collected from the basal well and fluorescence was measured (Em: 485 nm; Ex: 520 nm; Spectramax, Molecular Devices). For pharmacological inhibition treatments, PDTC (100 μM for 30 min pre-treatment; R&D Systems), Bay-11-7085 (10 μM for 30 min pre-treatment; Sigma-Aldrich), ML-9 (20 μM for 30 min pre-treatment; Sigma-Aldrich), PIK (150 μM, 30 min-pre-treatment and kept during 2-h infection) (Zolotarevsky et al., 2002), and Cytochalasin D (1 μg/mL for 1 h; Sigma-Aldrich) were used separately.
For re-association of externally added LAP to the lap^− mutant, bacteria were harvested from 1 ml of overnight grown culture, and the pellet was washed three times in PBS before the addition of 1 or 2 μg/mL of purified LAP. The mixture was incubated for 30 min at 30° C. with continuous shaking and then pelleted, washed five times in the PBS, resuspended in DMEM, and used in the aforementioned translocation assay.

[2] = test system: human TNF-α; test: ELISA of TNF-α in Caco-2 cell supernatants; format: cell-based; conditions: recombinant LAP 1 μg/mL, 8 h
Procedure: (§1) A semi-quantitative membrane-based RayBio Human Inflammation Antibody Array kit (Ray Biotech) was used to analyze a panel of 40 inflammatory mediators in Caco-2 cell supernatant infected either with the WT or lap^− strain (MOI, ˜50) at 37° C. for 1 h. After killing the extracellular bacteria by gentamicin (50 μg/mL), the Caco-2 cells were incubated for an additional 7 h at 37° C. Recombinant LAP (1 μg/mL) from ClearColi was incubated for 8 h with Caco-2 cells. After immunoblotting, the reaction intensity was quantified using NIH ImageJ software. The data were normalized and expressed as the mean fold changes as a ratio of lap^−/WT±SEM. For the ELISA, Caco-2 cell supernatants were centrifuged (2,000 rpm at 4° C. for 10 min) following treatment as above, and the quantification of TNF-α and IL-6 in was performed using human TNF-α and IL-6 ELISA kits (Ray Biotech) as per manufacturer's instruction. The quantification of TNF-α and IL-6 protein levels was performed in the ileal tissue lysates from mice using mouse TNF-α and IL-6 ELISA kits (Ray Biotech) as per manufacturer's instruction.

[3] = test system: IL-6; test: ELISA of IL-6 in Caco-2 cell supernatants; format: cell-based, human; conditions: recombinant LAP 1 μg/mL, 8 h
Procedure: as §1

[4] = test system: NF-κB(p65); test: Immunoblot of NF-κB activation in Caco-2 cytoplasmic and nuclear extracts; format: cell-based, human
Procedure: To extract the proteins from Caco-2 cells, cells were seeded in 6-well plates for 14-21 days. Following treatment, the cells were washed, scraped from the bottom of 6-well plates, suspended in PBS, and pelleted by centrifugation. Total protein from Caco-2 cells was extracted using the M-PER Extraction Kit (Thermo Fisher Scientific). Detergent-insoluble (membrane) and detergent-soluble (cytosolic) proteins were isolated using a Mem-Per Eukaryotic Protein Extraction Kit (Thermo Fisher Scientific) while the cytosolic and nuclear proteins were extracted using NE-PER Extraction Reagent (Thermo Fisher Scientific). To extract proteins from ileal epithelial cells, the epithelial cell fraction from ileal tissues were isolated as described above and the detergent-insoluble and the detergent-soluble proteins were isolated using a Mem-Per Eukaryotic Protein Extraction Kit.
To extract total protein from intact bacterial cells, sample solvent buffer and sonication (3 cycles of […]) were used. To isolate the cell wall-associated proteins bacterial pellets were resuspended in 0.5 ml protein extraction buffer (0.5% SDS, 10 mM Tris at pH 6.9), and incubated at 37° C. for 30 min with agitation. The samples were centrifuged (14,000×g, 10 min, 4° C.), and the supernatants (containing cell wall-associated proteins) were retained. Halt proteases and phosphatase inhibitors (Thermo Fisher Scientific) were used during all of the protein extraction procedures. The protein concentrations were determined by BCA assay (Thermo Fisher Scientific), and separated on SDS-PAGE gels (10-12.5% polyacrylamide) and electro-transferred to polyvinylidene difluoride (PVDF) membrane (Millipore). The membranes were then blocked in 5% nonfat dry milk (NFDM) in 0.1 M Tris-buffered saline, pH 7.5 (TBS) containing 0.1% Tween 20 (TBST) for at least 1 h. All of the primary antibodies were diluted in 5% bovine serum albumin (BSA) or 5% NFDM in TBST and incubated overnight. Secondary antibodies (1:2000 in 5% NFDM in TBST) incubated for 1 h at 37° C., and a chemiluminescence method was performed using LumiGLO reagent (Cell Signaling). The membranes were exposed to X-ray films or visualized using the Chemi-Doc XRS system (Bio-Rad). To immunoprobe the same membrane with another antibody, the originally bound antibodies from the membranes were removed by incubating the membranes in Restore Western Blot Stripping Buffer (Thermo Fisher Scientific) according to the manufacturer's protocol. To compare the reaction intensities, the average band densities were determined using Quantity One software (Bio-Rad). Densitometry reports represent the mean±SEM after normalization to the loading control and is presented as % change of protein with the average for untreated cells (control) set at 100%. Immunoblots and densitometric reports are representative of 2-3 independent experiments.

[5] = Caco-2 cells, LAP 1 μg/ml, 30 min (FIG. 5D)
[6] = LAP 1000 ng/mL or TNF-α 10 ng/mL
[7] = shRNA vector control Caco-2 cells, LAP 1 μg/mL (FIG. 5B)

B1: LAP: Listeria adhesion protein, alcohol acetaldehyde dehydrogenase of Listeria monocytogenes, 866 aa, 94 kDa; recombinant, histidine-tagged form SEQ ID NO: 10 (protein)
chain: MAIKENAAQEVLEVQKVIDRLADNGQKALKAFESYNQEQVDNIVHAMALAGLDQHMPLAKLAVEETGRGLYEDKCIKNIFATEYIWNNIKNNKTVGVINEDVQTGVIEIAEPVGVVAGVTPVTNPTSTTLFKAIIAIKTRNPIIFAFHPSAQRCSSAAAKVVYDAAIAAGAPEHCIQWVEKPSLEATKQLMNHDKVALVLATGGAGMVKSAYSTGKPALGVGPGNVPAYIDKTAKIKRSVNDIILSKSFDQGMICASEQAVIVDKEVAKEVKAEMEANKCYFVKGAEFKKLESYVINPEKGTLNPDVVGKSPAWIANQAGFKVPEDTKILVAEIKGVGDKYPLSHEKLSPVLAFIEAANQAEAFDRCEEMLVYGGLGHSAVIHSTDKEVQKAFGIRMKACRIIVNAPSAQGGIGDIYNGFIPSLTLGCGSYGKNSVSQNVSATNLLNVKRIADRRNNMQWFKLPPKIFFEKYSTQYLQKMEGVERVFIVTDPGMGSFKYVDVVIEHLKKRGNDVAYQVFADVEPDPSDVTVYKGAELMKDFKPDTIIALGGGSAMDAAKGMWLFYEHPEASFFGLKQKFLDIRKRTFKYPKLGGKAKFVAIPTTSGTGSEVTPFAVITDKENNIKYPLADYELTPDVAIVDAQYVTTVPAHITADTGMDVLTHAIESYVSVMASDYTRGLSIRAIELVFENLRESVLTGDPDAREKMHNASALAGMAFANAFLGINHSLAHKIGPEFHIPHGRANAILMPHVIRYNALKPKKHALFPRYESFRADEDYARISRIIGFPAATTEEGVKSLVDEIIKLGKDVGIDMSLKGQNVAKKDLDAVVDTLADRAFMDQCTTANPKQPLVSELKEIYLEAYKGV
modifications: Listeria monocytogenes
Question: B1 was tested. Which “translocation of the lap- strain after pre-incubation with exogenous purified LAP” value [1] did it give?
Answer: Its value is “rescued the translocation defect”.

Question: What about the TNF-α production [2] of the same molecule?
Answer: The TNF-α production was “significantly higher levels”.

Question: What about the IL-6 production [3] of the same molecule?
Answer: The IL-6 production was “significantly higher levels”.

Question: And the “increase of IKK-β protein expression” value [4, 5]?
Answer: The value was 53±2%.

Question: What about the “increase of p65 protein expression” value [4, 5] of the same molecule?
Answer: Its value is 63±5%.

Question: What about the “protein expression levels of IKK-β and p65” value ([4]; Hsp60 knocked-down (hsp60::shRNA) Caco-2 cells, LAP 1 μg/mL) of the same molecule?
Answer: The value was “basal protein expression levels”.

Question: And the “increase of IKKα in the cytosol relative to untreated cells” value ([4]; LAP 1 μg/mL, 30 min)?
Answer: Its value is 267±7%.

Question: What about the “increase of P-p65 in the nucleus relative to untreated cells” value ([4]; LAP 1 μg/mL, 30 min) of the same molecule?
Answer: The value was 120±23%.

Question: And the “increase of p65 in the nucleus relative to untreated cells” value ([4]; LAP 1 μg/mL, 30 min)?
Answer: The value was 218±32%.

Question: And the “time of appearance of cytoplasmic phospho-IκBα (Ser32)” value [4, 6]?
Answer: Its value is 15 min.

Question: And the “time of increase in nuclear p65 and P-p65” value [4, 6]?
Answer: Its value is 30 min.

Question: And the “time by which most IκBα was degraded” value ([4]; LAP 1000 ng/mL, 0-120 min)?
Answer: Its value is at most 45 min.

Question: And the “time of rapid degradation of IκBα” value ([4]; LAP 1000 ng/mL, 0-120 min)?
Answer: The value was at most 15 min.

Question: What about the “increase of IKK-β protein expression” value [4, 7] of the same molecule?
Answer: The value was 52±8%.

Question: And the “increase of p65 protein expression” value [4, 7]?
Answer: Its value is 54±8%.
